Data reported in the supplement of paper PMC10065799, “High-throughput profiling of sequence recognition by tyrosine kinases and SH2 domains using bacterial peptide display” (eLife, 2023).

These sequences were tested on AncSZ (assay: phosphorylation enrichment, bacterial display (enrichment ratio); higher = better substrate or ligand; peptides without Tyr show the background).
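Also: 11-residue human phosphosite peptides and single-mutation variants displayed on the E. coli surface, counted by deep sequencing, each peptide's frequency after selection divided by its frequency in the unselected input library; frequency after pTyr selection over input frequency; kinase dosed for 20-30% of maximal phosphorylation in three min.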

| Sequence | phosphorylation enrichment |
| --- | --- |
| HGEAYYSEVKA [PAK5_Y182_P187A] | 1.04 |
| RGKLFYQEVPA [METTL11B_Y76_A72G] | 0.844 |
| SCTFTCLLGDR [ETHE1_Y38_Y38C] | 0.916 |
| HTVVSYAKVRA [CLOCK_Y378_E380K] | 1.2 |
| GPRSLYNGLVA [UCP2_Y79] | 0.488 |
| IVAREYFSDAD [CAMK2A_Y106_E109D_YF] | 0.744 |
| ANLAKYGNPNE [BCHE_Y505_F502L] | 0.778 |
| PLLEYYRDIFT [CDAN1_Y713] | 1.7 |
| ALAHKYPGGGG [HBB_Y146_H147P] | 0.214 |
| QTENKYVSVSG [EIF2AK3_Y565_D566V] | 0.61 |
| RFFTTYDTNGR [CLCA1_Y665_YF] | 1.08 |
| EVLKNYSQQKD [GOLGA4_Y1551_N1552S] | 0.545 |
| SMVVPYEPPEV [TP53_Y220_V216M] | 1.11 |
| VYYDLYGGEKF [PTPN11_Y66_D61V] | 2.05 |
| LEFGDYHPLKP [VPS35L_Y32] | 2.75 |
| WGTPEYDSVVA [MAP1A_Y1883_A1881P] | 1.42 |
| DLDTDYGSGFP [RNASEH2A_Y206_YF] | 1.22 |

| Sequence | phosphorylation enrichment |
| --- | --- |
| MKKKTYAMGGG [GAN_Y424_I423T] | 0.705 |
| VQVAYYTVMMN [SPATA17_Y84_M86V] | 1.79 |
| GDEVEYMLVSF [GCLC_Y53] | 2.31 |
| IVEYAYNDKAI [PUM3_Y259] | 1.28 |
| GGMAEYTRLHN [EHHADH_Y4] | 0.609 |
| KMATAYIRRMS [BCO1_Y264] | 0.68 |
| NFDRIYIYHLR [MYOF_Y1137_V1136I] | 1.17 |
| VGSEDYGRDLT [SPTAN1_Y1792] | 1.1 |
| DDLEVYLKHPL [SACS_Y3477_L3481P] | 1.53 |
| LRFKQYLRNPP [SHC1_Y315] | 0.957 |
| HIKHNYECLVF [XRCC5_Y416_YF] | 1.31 |
| PINEPYGDDMD [JUP_Y693] | 2.44 |
| LHQSTYQCFDV [SLC7A14_Y693_R695C_YF] | 1.25 |
| KPEKTYGLRNE [CEP43_Y267_K271N] | 0.494 |
| QAPPVYLDVLG [NTRK1_Y791] | 1.17 |
| CDDGKYVYVVT [RPS6KA3_Y488_Y483C] | 1.48 |

Each sequence was assayed against EPHB1 (UniProt P54762) in the same assay as above.
EPHB1, sequence (P54762 whole entry, looked up): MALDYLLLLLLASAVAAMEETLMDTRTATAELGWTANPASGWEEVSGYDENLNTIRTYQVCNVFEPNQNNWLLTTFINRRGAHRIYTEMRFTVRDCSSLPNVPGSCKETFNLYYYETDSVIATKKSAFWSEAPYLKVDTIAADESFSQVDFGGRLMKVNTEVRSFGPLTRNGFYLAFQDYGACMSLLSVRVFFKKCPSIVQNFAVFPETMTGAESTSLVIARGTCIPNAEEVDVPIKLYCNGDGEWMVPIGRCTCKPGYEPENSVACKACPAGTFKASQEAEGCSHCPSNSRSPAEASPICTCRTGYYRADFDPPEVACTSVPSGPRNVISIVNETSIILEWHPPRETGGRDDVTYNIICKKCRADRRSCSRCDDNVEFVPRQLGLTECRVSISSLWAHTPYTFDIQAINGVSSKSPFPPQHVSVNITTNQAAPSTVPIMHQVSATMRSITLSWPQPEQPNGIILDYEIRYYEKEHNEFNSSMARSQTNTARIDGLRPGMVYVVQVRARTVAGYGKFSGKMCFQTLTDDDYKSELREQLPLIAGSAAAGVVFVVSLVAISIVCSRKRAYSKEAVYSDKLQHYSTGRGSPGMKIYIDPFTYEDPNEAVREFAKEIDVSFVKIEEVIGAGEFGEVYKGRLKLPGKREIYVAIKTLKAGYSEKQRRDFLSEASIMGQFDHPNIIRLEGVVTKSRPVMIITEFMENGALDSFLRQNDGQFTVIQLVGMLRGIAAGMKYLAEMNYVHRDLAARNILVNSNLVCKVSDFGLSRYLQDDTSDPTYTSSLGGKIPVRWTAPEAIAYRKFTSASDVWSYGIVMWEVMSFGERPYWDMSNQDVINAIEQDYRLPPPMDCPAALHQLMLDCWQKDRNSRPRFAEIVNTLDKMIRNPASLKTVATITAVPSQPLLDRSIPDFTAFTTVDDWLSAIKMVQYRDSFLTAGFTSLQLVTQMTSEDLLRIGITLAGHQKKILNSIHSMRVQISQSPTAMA

| Sequence | phosphorylation enrichment |
| --- | --- |
| HGEAYYSEVKA [PAK5_Y182_P187A] | 0.926 |
| RGKLFYQEVPA [METTL11B_Y76_A72G] | 1.48 |
| SCTFTCLLGDR [ETHE1_Y38_Y38C] | 0.45 |
| HTVVSYAKVRA [CLOCK_Y378_E380K] | 0.749 |
| GPRSLYNGLVA [UCP2_Y79] | 0.385 |
| IVAREYFSDAD [CAMK2A_Y106_E109D_YF] | 0.48 |
| ANLAKYGNPNE [BCHE_Y505_F502L] | 0.492 |
| PLLEYYRDIFT [CDAN1_Y713] | 1.38 |
| ALAHKYPGGGG [HBB_Y146_H147P] | 0.894 |
| QTENKYVSVSG [EIF2AK3_Y565_D566V] | 0.808 |
| RFFTTYDTNGR [CLCA1_Y665_YF] | 0.726 |
| EVLKNYSQQKD [GOLGA4_Y1551_N1552S] | 0.419 |
| SMVVPYEPPEV [TP53_Y220_V216M] | 0.592 |
| VYYDLYGGEKF [PTPN11_Y66_D61V] | 4.34 |
| LEFGDYHPLKP [VPS35L_Y32] | 1.3 |
| WGTPEYDSVVA [MAP1A_Y1883_A1881P] | 0.495 |
| DLDTDYGSGFP [RNASEH2A_Y206_YF] | 0.585 |

| Sequence | phosphorylation enrichment |
| --- | --- |
| MKKKTYAMGGG [GAN_Y424_I423T] | 0.857 |
| VQVAYYTVMMN [SPATA17_Y84_M86V] | 2.88 |
| GDEVEYMLVSF [GCLC_Y53] | 0.665 |
| IVEYAYNDKAI [PUM3_Y259] | 0.705 |
| GGMAEYTRLHN [EHHADH_Y4] | 0.494 |
| KMATAYIRRMS [BCO1_Y264] | 0.359 |
| NFDRIYIYHLR [MYOF_Y1137_V1136I] | 0.701 |
| VGSEDYGRDLT [SPTAN1_Y1792] | 0.626 |
| DDLEVYLKHPL [SACS_Y3477_L3481P] | 0.871 |
| LRFKQYLRNPP [SHC1_Y315] | 0.562 |
| HIKHNYECLVF [XRCC5_Y416_YF] | 1.86 |
| PINEPYGDDMD [JUP_Y693] | 0.944 |
| LHQSTYQCFDV [SLC7A14_Y693_R695C_YF] | 2.34 |
| KPEKTYGLRNE [CEP43_Y267_K271N] | 0.39 |
| QAPPVYLDVLG [NTRK1_Y791] | 4.2 |
| CDDGKYVYVVT [RPS6KA3_Y488_Y483C] | 0.896 |

The sequences below were run against EPHB2 (UniProt P29323) in the same assay as above.
EPHB2, sequence (P29323 whole entry, looked up): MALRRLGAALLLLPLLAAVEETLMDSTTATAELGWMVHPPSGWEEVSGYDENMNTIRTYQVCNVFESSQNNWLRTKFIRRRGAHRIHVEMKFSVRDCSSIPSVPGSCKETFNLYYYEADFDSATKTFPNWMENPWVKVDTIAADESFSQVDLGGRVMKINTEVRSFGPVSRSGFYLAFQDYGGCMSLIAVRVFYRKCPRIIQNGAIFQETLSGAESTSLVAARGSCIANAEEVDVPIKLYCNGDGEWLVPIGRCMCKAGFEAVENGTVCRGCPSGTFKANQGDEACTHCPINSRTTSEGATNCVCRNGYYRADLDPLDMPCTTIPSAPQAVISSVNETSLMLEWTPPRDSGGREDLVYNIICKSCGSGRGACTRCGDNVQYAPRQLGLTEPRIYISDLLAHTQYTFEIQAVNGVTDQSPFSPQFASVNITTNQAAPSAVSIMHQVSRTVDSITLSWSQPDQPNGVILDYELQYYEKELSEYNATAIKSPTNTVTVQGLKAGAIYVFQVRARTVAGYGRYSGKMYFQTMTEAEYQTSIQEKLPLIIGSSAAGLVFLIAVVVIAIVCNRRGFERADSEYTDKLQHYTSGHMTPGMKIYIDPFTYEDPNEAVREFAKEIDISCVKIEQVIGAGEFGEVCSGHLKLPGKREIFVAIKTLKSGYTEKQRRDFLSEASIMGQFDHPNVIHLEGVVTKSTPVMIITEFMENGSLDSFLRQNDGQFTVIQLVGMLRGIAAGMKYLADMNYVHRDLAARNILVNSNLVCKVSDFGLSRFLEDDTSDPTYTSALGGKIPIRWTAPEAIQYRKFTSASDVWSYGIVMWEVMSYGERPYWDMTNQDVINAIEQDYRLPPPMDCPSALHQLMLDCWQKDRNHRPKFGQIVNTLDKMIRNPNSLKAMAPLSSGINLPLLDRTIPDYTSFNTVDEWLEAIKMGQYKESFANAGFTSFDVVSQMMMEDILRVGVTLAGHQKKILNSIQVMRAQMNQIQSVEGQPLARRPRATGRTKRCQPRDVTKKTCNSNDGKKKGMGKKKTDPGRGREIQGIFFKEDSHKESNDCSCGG

| Sequence | phosphorylation enrichment |
| --- | --- |
| HGEAYYSEVKA [PAK5_Y182_P187A] | 0.563 |
| RGKLFYQEVPA [METTL11B_Y76_A72G] | 0.777 |
| SCTFTCLLGDR [ETHE1_Y38_Y38C] | 0.536 |
| HTVVSYAKVRA [CLOCK_Y378_E380K] | 0.972 |
| GPRSLYNGLVA [UCP2_Y79] | 0.36 |
| IVAREYFSDAD [CAMK2A_Y106_E109D_YF] | 0.491 |
| ANLAKYGNPNE [BCHE_Y505_F502L] | 0.455 |
| PLLEYYRDIFT [CDAN1_Y713] | 1.25 |
| ALAHKYPGGGG [HBB_Y146_H147P] | 0.84 |
| QTENKYVSVSG [EIF2AK3_Y565_D566V] | 0.683 |
| RFFTTYDTNGR [CLCA1_Y665_YF] | 0.834 |
| EVLKNYSQQKD [GOLGA4_Y1551_N1552S] | 0.456 |
| SMVVPYEPPEV [TP53_Y220_V216M] | 0.625 |
| VYYDLYGGEKF [PTPN11_Y66_D61V] | 7.34 |
| LEFGDYHPLKP [VPS35L_Y32] | 1.26 |
| WGTPEYDSVVA [MAP1A_Y1883_A1881P] | 0.493 |
| DLDTDYGSGFP [RNASEH2A_Y206_YF] | 0.443 |

| Sequence | phosphorylation enrichment |
| --- | --- |
| MKKKTYAMGGG [GAN_Y424_I423T] | 1.09 |
| VQVAYYTVMMN [SPATA17_Y84_M86V] | 1.47 |
| GDEVEYMLVSF [GCLC_Y53] | 0.829 |
| IVEYAYNDKAI [PUM3_Y259] | 0.69 |
| GGMAEYTRLHN [EHHADH_Y4] | 0.374 |
| KMATAYIRRMS [BCO1_Y264] | 0.495 |
| NFDRIYIYHLR [MYOF_Y1137_V1136I] | 0.648 |
| VGSEDYGRDLT [SPTAN1_Y1792] | 0.587 |
| DDLEVYLKHPL [SACS_Y3477_L3481P] | 0.625 |
| LRFKQYLRNPP [SHC1_Y315] | 1.8 |
| HIKHNYECLVF [XRCC5_Y416_YF] | 1.44 |
| PINEPYGDDMD [JUP_Y693] | 0.985 |
| LHQSTYQCFDV [SLC7A14_Y693_R695C_YF] | 0.896 |
| KPEKTYGLRNE [CEP43_Y267_K271N] | 0.362 |
| QAPPVYLDVLG [NTRK1_Y791] | 1.34 |
| CDDGKYVYVVT [RPS6KA3_Y488_Y483C] | 0.777 |

These sequences were tested against FGFR1 (UniProt P11362) in the same assay as above.
FGFR1, sequence (P11362 whole entry, looked up): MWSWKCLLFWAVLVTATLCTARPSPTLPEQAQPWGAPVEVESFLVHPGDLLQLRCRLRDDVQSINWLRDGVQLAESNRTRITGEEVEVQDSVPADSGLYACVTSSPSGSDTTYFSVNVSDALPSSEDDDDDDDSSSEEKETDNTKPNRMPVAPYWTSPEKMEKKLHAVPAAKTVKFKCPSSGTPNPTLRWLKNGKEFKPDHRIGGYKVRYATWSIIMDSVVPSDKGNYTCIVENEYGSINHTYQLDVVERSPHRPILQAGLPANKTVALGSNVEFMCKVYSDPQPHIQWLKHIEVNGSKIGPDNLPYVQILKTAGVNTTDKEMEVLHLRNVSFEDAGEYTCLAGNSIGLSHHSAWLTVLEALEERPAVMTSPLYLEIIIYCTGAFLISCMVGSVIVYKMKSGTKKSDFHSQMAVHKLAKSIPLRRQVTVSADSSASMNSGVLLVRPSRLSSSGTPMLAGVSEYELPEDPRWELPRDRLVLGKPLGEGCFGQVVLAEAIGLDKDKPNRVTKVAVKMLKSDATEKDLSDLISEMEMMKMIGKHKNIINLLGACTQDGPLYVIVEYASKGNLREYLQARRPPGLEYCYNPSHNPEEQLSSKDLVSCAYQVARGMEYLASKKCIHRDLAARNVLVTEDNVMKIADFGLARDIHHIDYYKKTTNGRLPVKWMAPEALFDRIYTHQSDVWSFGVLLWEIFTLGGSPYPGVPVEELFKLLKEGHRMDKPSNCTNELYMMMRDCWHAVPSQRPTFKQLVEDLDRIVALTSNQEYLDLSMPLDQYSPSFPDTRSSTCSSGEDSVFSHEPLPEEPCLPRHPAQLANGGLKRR

| Sequence | phosphorylation enrichment |
| --- | --- |
| HGEAYYSEVKA [PAK5_Y182_P187A] | 2.83 |
| RGKLFYQEVPA [METTL11B_Y76_A72G] | 1.37 |
| SCTFTCLLGDR [ETHE1_Y38_Y38C] | 0.488 |
| HTVVSYAKVRA [CLOCK_Y378_E380K] | 0.917 |
| GPRSLYNGLVA [UCP2_Y79] | 0.396 |
| IVAREYFSDAD [CAMK2A_Y106_E109D_YF] | 0.461 |
| ANLAKYGNPNE [BCHE_Y505_F502L] | 0.392 |
| PLLEYYRDIFT [CDAN1_Y713] | 6.73 |
| ALAHKYPGGGG [HBB_Y146_H147P] | 0.853 |
| QTENKYVSVSG [EIF2AK3_Y565_D566V] | 0.527 |
| RFFTTYDTNGR [CLCA1_Y665_YF] | 0.674 |
| EVLKNYSQQKD [GOLGA4_Y1551_N1552S] | 0.404 |
| SMVVPYEPPEV [TP53_Y220_V216M] | 0.45 |
| VYYDLYGGEKF [PTPN11_Y66_D61V] | 15 |
| LEFGDYHPLKP [VPS35L_Y32] | 11.5 |
| WGTPEYDSVVA [MAP1A_Y1883_A1881P] | 0.46 |
| DLDTDYGSGFP [RNASEH2A_Y206_YF] | 0.447 |

| Sequence | phosphorylation enrichment |
| --- | --- |
| MKKKTYAMGGG [GAN_Y424_I423T] | 0.653 |
| VQVAYYTVMMN [SPATA17_Y84_M86V] | 5.77 |
| GDEVEYMLVSF [GCLC_Y53] | 3.97 |
| IVEYAYNDKAI [PUM3_Y259] | 0.501 |
| GGMAEYTRLHN [EHHADH_Y4] | 0.382 |
| KMATAYIRRMS [BCO1_Y264] | 0.461 |
| NFDRIYIYHLR [MYOF_Y1137_V1136I] | 0.548 |
| VGSEDYGRDLT [SPTAN1_Y1792] | 0.564 |
| DDLEVYLKHPL [SACS_Y3477_L3481P] | 0.643 |
| LRFKQYLRNPP [SHC1_Y315] | 0.865 |
| HIKHNYECLVF [XRCC5_Y416_YF] | 0.796 |
| PINEPYGDDMD [JUP_Y693] | 1.15 |
| LHQSTYQCFDV [SLC7A14_Y693_R695C_YF] | 1.14 |
| KPEKTYGLRNE [CEP43_Y267_K271N] | 0.394 |
| QAPPVYLDVLG [NTRK1_Y791] | 2.33 |
| CDDGKYVYVVT [RPS6KA3_Y488_Y483C] | 0.834 |
